Laboratory results: the RNAGym collection of RNA variant scans (doi:10.7554/elife.80360)

B1: Hairpin Ribozyme (parent)
chain: GUCCUCUUUCACGUGCGCGUGAAAGAGAGAAGUGAACCAGAGAAACACACGUUGUGGUAUAUUACCUGGUA

Variants of: B1
Assay: self-cleavage, relative activity (ratio to wild type); higher = more cleavage; co-transcriptional

Variant | self-cleavage
A45U A61G | 0.184
A45U U58C | 0.0664
A47C G69U | 0.0997
A47C G69A | 0.151
A47C U55A | 0.195
A47C G68U | 0.298
C48A C65U | 0.189
C48A C65G | 0.132
C48A U67G | 0.122
C48U U63A | 0.173
A45U U67G | 0.131
A45G U62C | 0.0923
A49G G51C | 0.495
A49G G51A | 0.651
A45G A61C | 0.142
A47U G68U | 0.224
A47C C66A | 0.205
A49G G68U | 0.215
A49G U60G | 0.547
C46U G51A | 0.132
A47C C48A | 0.164
A47C A71C | 0.72
C48G U67C | 0.117
C48G U67A | 0.259

Variant | self-cleavage
A49G G57A | 0.111
A49G G57C | 0.0948
A47G U62A | 0.0725
A47U G51C | 0.31
A47U G51U | 0.166
A49G U58G | 0.45
A49G U58C | 0.532
C48U G51A | 0.082
C48U G51C | 0.0415
C48A U62G | 0.0864
A47G G51C | 0.221
A47G G51U | 0.15
C46G U55G | 0.107
C46U C48G | 0.141
C48U G69C | 0.124
C48U G69U | 0.182
A49C C50G | 0.129
C48A G68A | 0.165
C48A G68C | 0.246
A45C G56A | 0.144
A45C G56C | 0.312
A49C A71U | 0.27
A45G G54C | 0.0826
C48U G56A | 0.222

Variant | self-cleavage
A47G C50G | 0.105
A47G C50A | 0.172
C46A A71C | 0.342
C46U U58C | 0.221
A47C U53C | 0.192
A47C U53G | 0.174
C46G C65A | 0.174
C48U U58C | 0.333
C48G G54C | 0.189
C48G G54A | 0.172
C46A A64C | 0.0755
C46A A64U | 0.255
C46A A64G | 0.185
A47U G57U | 0.0955
A47C U67A | 0.128
C48A A64G | 0.127
C46G U70C | 0.203
A47C G56U | 0.149
A49G A64C | 0.248
A49G A64G | 0.155
A47U A71G | 0.191
A47U A71U | 0.234
A47U A59G | 0.151
C46A U62G | 0.0929

Variant | self-cleavage
A49C G57C | 0.121
C46A | 0.148
C46G | 0.15
C46U | 0.149
C46G G54C | 0.0768
C48A U58A | 0.0644
C48A U58G | 0.165
C48U A61U | 0.151
A45G A64G | 0.1
A45G A64C | 0.216
A45U U70A | 0.0397
A45U U70G | 0.24
A45U U70C | 0.056
C48U U60C | 0.389
C48U U60G | 0.125
A47G C48A | 0.122
C46A A61U | 0.171
A45G G57A | 0.0893
A45U U55A | 0.197
C48U A49C | 0.225
A47G C66G | 0.128
A47U A64G | 0.0969
A47U A64U | 0.123
A45U G56U | 0.208

Variant | self-cleavage
A49C U70A | 0.157
A49C U70G | 0.0833
A49C U70C | 0.0597
C46U A64C | 0.0758
C48G A64C | 0.242
A45U G51C | 0.0528
A47G A61G | 0.219
C46A U52A | 0.196
A45G U55A | 0.121
C46G U67G | 0.198
C46G U67C | 0.173
C48A A61U | 0.163
C48U C65G | 0.0909
C48U C65A | 0.086
C48A U52G | 0.131
C48A U52C | 0.162
C48U C50U | 0.0683
C48U C50G | 0.109
C48U C50A | 0.0417
A47C U58C | 0.318
C46G U52C | 0.144
C46G U52A | 0.189
C46G U52G | 0.232
A49C G56A | 0.17

Variant | self-cleavage
A45C U62C | 0.141
C48A U63G | 0.229
C48A U63A | 0.174
A45G U60G | 0.187
A45G U60C | 0.0993
A45U U63C | 0.287
A49C A59U | 0.287
A47U U60C | 0.0859
A47U U60A | 0.0931
A47U U60G | 0.0964
A47G G57A | 0.151
A45U A49G | 0.165
A45U A49C | 0.134
C46G A71G | 0.166
A47U C66A | 0.157
A47U C66U | 0.228
C46U U60C | 0.247
C46U U60A | 0.16
A45G G51A | 0.161
C46U U63C | 0.106
A47C C50A | 0.29
A49G C50A | 0.249
A49G C50U | 0.129
A45G C48A | 0.109

Variant | self-cleavage
A45U C65G | 0.155
C46A U60C | 0.277
C46A U60A | 0.0649
A49G G56A | 0.204
A47U G54C | 0.144
A47U G54A | 0.159
A47U G54U | 0.145
A47C A49G | 0.308
A47C A49C | 0.204
A49C U62A | 0.15
C48A U70C | 0.27
A49C C66G | 0.301
A49C C66U | 0.183
A47G G69C | 0.112
A47G G69U | 0.118
A49C G54C | 0.187
A45U C66A | 0.204
A45U C66U | 0.117
A49C U60A | 0.333
A49C U60C | 0.165
A47G C65G | 0.112
A45U C48A | 0.14
A45U C48U | 0.135
